# Results as given in paper PMC3101628 (Nature structural & molecular biology, 2011).
# Where two headings read alike, the source gives them in different places.
# B1: S. cerevisiae ribonucleotide reductase RR1 (ScRR1), wild type (enzyme)
# chain: MYVYKRDGRKEPVQFDKITARISRLCYGLDPKHIDAVKVTQRIISGVYEGVTTIELDNLAAETCAYMTTVHPDYATLAARIAISNLHKQTTKQFSKVVEDLYRYVNAATGKPAPMISDDVYNIVMENKDKLNSAIVYDRDFQYSYFGFKTLERSYLLRINGQVAERPQHLIMRVALGIHGRDIEAALETYNLMSLKYFTHASPTLFNAGTPKPQMSSCFLVAMKEDSIEGIYDTLKECALISKTAGGIGLHIHNIRSTGSYIAGTNGTSNGLIPMIRVFNNTARYVDQGGNKRPGAFALYLEPWHADIFDFIDIRKNHGKEEIRARDLFPALWIPDLFMKRVEENGTWTLFSPTSAPGLSDCYGDEFEALYTRYEKEGRGKTIKAQKLWYSILEAQTETGTPFVVYKDACNRKSNQKNLGVIKSSNLCCEIVEYSAPDETAVCNLASVALPAFIETSEDGKTSTYNFKKLHEIAKVVTRNLNRVIDRNYYPVEEARKSNMRHRPIALGVQGLADTFMLLRLPFDSEEARLLNIQIFETIYHASMEASCELAQKDGPYETFQGSPASQGILQFDMWDQKPYGMWDWDTLRKDIMKHGVRNSLTMAPMPTASTSQILGYNECFEPVTSNMYSRRVLSGEFQVVNPYLLRDLVDLGIWDEGMKQYLITQNGSIQGLPNVPQELKDLYKTVWEISQKTIINMAADRSVYIDQSHSLNLFLRAPTMGKLTSMHFYGWKKGLKTGMYYLRTQAASAAIQFTIDQKIADQATENVADISNLKRPSYMPSSASYAASDFVPAAVTANATIPSLDSSSEASREASPAPTGSHSLTKGMAELNVQESKVEVPEVPAPTKNEEKAAPIVDDEETEFDIYNSKVIACAIDNPEACEMCSG
# What was measured:
# SEC-MALS = molecular target: the molecule itself; test: SEC-MALS
# SEC [1] = molecular target: the molecule itself; test: SEC
# SEC [2] = molecular target: the molecule itself; test: SEC; remark: listed apart in the source
# SEC [3] = molecular target: the molecule itself; test: SEC; remark: listed apart in the source
# [4] = molecular target: the molecule itself
# SEC [5] = molecular target: the molecule itself; test: SEC; remark: listed apart in the source
# [6] = molecular target: B1; test: SEC
binder,measurement,setting,value
"hRRM1 D16R (enzyme, human, UniProt P23921 1-792, looked up) MHVIKRDGRQERVMFRKITSRIQKLCYGLNMDFVDPAQITMKVIQGLYSGVTTVELDTLAAETAATLTTKHPDYAILAARIAVSNLHKETKKVFSDVMEDLYNYINPHNGKHSPMVAKSTLDIVLANKDRLNSAIIYDRDFSYNYFGFKTLERSYLLKINGKVAERPQHMLMRVSVGIHKEDIDAAIETYNLLSERWFTHASPTLFNAGTNRPQLSSCFLLSMKDDSIEGIYDTLKQCALISKSAGGIGVAVSCIRATGSYIAGTNGNSNGLVPMLRVYNNTARYVDQGGNKRPGAFAIYLEPWHLDIFEFLDLKKNTGKEEQRARDLFFALWIPDLFMKRVETNQDWSLMCPNECPGLDEVWGEEFEKLYASYEKQGRVRKVVKAQQLWYAIIESQTETGTPYMLYKDSCNRKSNQQNLGTIKCSNLCTEIVEYTSKDEVAVCNLASLALNMYVTSEHTYDFKKLAEVTKVVVRNLNKIIDINYYPVPEACLSNKRHRPIGIGVQGLADAFILMRYPFESAEAQLLNKQIFETIYYGALEASCDLAKEQGPYETYEGSPVSKGILQYDMWNVTPTDLWDWKVLKEKIAKYGIRNSLLIAPMPTASTAQILGNNESIEPYTSNIYTRRVLSGEFQIVNPHLLKDLTERGLWHEEMKNQIIACNGSIQSIPEIPDDLKQLYKTVWEISQKTVLKMAAERGAFIDQSQSLNIHIAEPNYGKLTSMHFYGWKQGLKTGMYYLRTRPAANPIQFTLNKEKLKDKEKVSKEEEEKERNTAAMVCSLENRDECLMCGS",stoichiometry N,SEC-MALS,2
same,stoichiometry N,SEC [1],6
"hRRM1 D57N (enzyme, human, UniProt P23921 1-792, looked up) MHVIKRDGRQERVMFDKITSRIQKLCYGLNMDFVDPAQITMKVIQGLYSGVTTVELNTLAAETAATLTTKHPDYAILAARIAVSNLHKETKKVFSDVMEDLYNYINPHNGKHSPMVAKSTLDIVLANKDRLNSAIIYDRDFSYNYFGFKTLERSYLLKINGKVAERPQHMLMRVSVGIHKEDIDAAIETYNLLSERWFTHASPTLFNAGTNRPQLSSCFLLSMKDDSIEGIYDTLKQCALISKSAGGIGVAVSCIRATGSYIAGTNGNSNGLVPMLRVYNNTARYVDQGGNKRPGAFAIYLEPWHLDIFEFLDLKKNTGKEEQRARDLFFALWIPDLFMKRVETNQDWSLMCPNECPGLDEVWGEEFEKLYASYEKQGRVRKVVKAQQLWYAIIESQTETGTPYMLYKDSCNRKSNQQNLGTIKCSNLCTEIVEYTSKDEVAVCNLASLALNMYVTSEHTYDFKKLAEVTKVVVRNLNKIIDINYYPVPEACLSNKRHRPIGIGVQGLADAFILMRYPFESAEAQLLNKQIFETIYYGALEASCDLAKEQGPYETYEGSPVSKGILQYDMWNVTPTDLWDWKVLKEKIAKYGIRNSLLIAPMPTASTAQILGNNESIEPYTSNIYTRRVLSGEFQIVNPHLLKDLTERGLWHEEMKNQIIACNGSIQSIPEIPDDLKQLYKTVWEISQKTVLKMAAERGAFIDQSQSLNIHIAEPNYGKLTSMHFYGWKQGLKTGMYYLRTRPAANPIQFTLNKEKLKDKEKVSKEEEEKERNTAAMVCSLENRDECLMCGS",stoichiometry N,SEC [2],2
same,stoichiometry N,SEC [3],6
"ScRR1 D182R (enzyme, S. cerevisiae) MYVYKRDGRKEPVQFDKITARISRLCYGLDPKHIDAVKVTQRIISGVYEGVTTIELDNLAAETCAYMTTVHPDYATLAARIAISNLHKQTTKQFSKVVEDLYRYVNAATGKPAPMISDDVYNIVMENKDKLNSAIVYDRDFQYSYFGFKTLERSYLLRINGQVAERPQHLIMRVALGIHGRRIEAALETYNLMSLKYFTHASPTLFNAGTPKPQMSSCFLVAMKEDSIEGIYDTLKECALISKTAGGIGLHIHNIRSTGSYIAGTNGTSNGLIPMIRVFNNTARYVDQGGNKRPGAFALYLEPWHADIFDFIDIRKNHGKEEIRARDLFPALWIPDLFMKRVEENGTWTLFSPTSAPGLSDCYGDEFEALYTRYEKEGRGKTIKAQKLWYSILEAQTETGTPFVVYKDACNRKSNQKNLGVIKSSNLCCEIVEYSAPDETAVCNLASVALPAFIETSEDGKTSTYNFKKLHEIAKVVTRNLNRVIDRNYYPVEEARKSNMRHRPIALGVQGLADTFMLLRLPFDSEEARLLNIQIFETIYHASMEASCELAQKDGPYETFQGSPASQGILQFDMWDQKPYGMWDWDTLRKDIMKHGVRNSLTMAPMPTASTSQILGYNECFEPVTSNMYSRRVLSGEFQVVNPYLLRDLVDLGIWDEGMKQYLITQNGSIQGLPNVPQELKDLYKTVWEISQKTIINMAADRSVYIDQSHSLNLFLRAPTMGKLTSMHFYGWKKGLKTGMYYLRTQAASAAIQFTIDQKIADQATENVADISNLKRPSYMPSSASYAASDFVPAAVTANATIPSLDSSSEASREASPAPTGSHSLTKGMAELNVQESKVEVPEVPAPTKNEEKAAPIVDDEETEFDIYNSKVIACAIDNPEACEMCSG",stoichiometry N,[4],6
B1,stoichiometry N,SEC [5],6
"yeast RR2●RR4 hetero-dimer (ScRR2●ScRR4) (complex, S. cerevisiae) chain 1: MPKETPSKAAADALSDLEIKDSKSNLNKELETLREENRVKSDMLKEKLSKDAENHKAYLKSHQVHRHKLKEMEKEEPLLNEDKERTVLFPIKYHEIWQAYKRAEASFWTAEEIDLSKDIHDWNNRMNENERFFISRVLAFFAASDGIVNENLVENFSTEVQIPEAKSFYGFQIMIENIHSETYSLLIDTYIKDPKESEFLFNAIHTIPEIGEKAEWALRWIQDADALFGERLVAFASIEGVFFSGSFASIFWLKKRGMMPGLTFSNELICRDEGLHTDFACLLFAHLKNKPDPAIVEKIVTEAVEIEQRYFLDALPVALLGMNADLMNQYVEFVADRLLVAFGNKKYYKVENPFDFMENISLAGKTNFFEKRVSDYQKAGVMSKSTKQEAGAFTFNEDF chain 2: MEAHNQFLKTFQKERHDMKEAEKDEILLMENSRRFVMFPIKYHEIWAAYKKVEASFWTAEEIELAKDTEDFQKLTDDQKTYIGNLLALSISSDNLVNKYLIENFSAQLQNPEGKSFYGFQIMMENIYSEVYSMMVDAFFKDPKNIPLFKEIANLPEVKHKAAFIERWISNDDSLYAERLVAFAAKEGIFQAGNYASMFWLTDKKIMPGLAMANRNICRDRGAYTDFSCLLFAHLRTKPNPKIIEKIITEAVEIEKEYYSNSLPVEKFGMDLKSIHTYIEFVADGLLQGFGNEKYYNAVNPFEFMEDVATAGKTTFFEKKVSDYQKASDMSKSATPSKEINFDDDF",binding result,[6],binds
